Source: PMC4434323

Assays:
[1] = biological target: T1, daf-12 (F11A1.3) (Caenorhabditis elegans) (UniProt G5EFF5)
T1 sequence: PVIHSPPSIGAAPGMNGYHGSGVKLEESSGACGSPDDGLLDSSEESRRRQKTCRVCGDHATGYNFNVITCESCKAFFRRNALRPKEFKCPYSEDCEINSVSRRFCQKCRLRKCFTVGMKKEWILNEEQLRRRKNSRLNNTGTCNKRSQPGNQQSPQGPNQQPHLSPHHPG

[2] = biological target: T2, unc-120 (D1081.2) (Caenorhabditis elegans) (UniProt Q18955)
T2 sequence: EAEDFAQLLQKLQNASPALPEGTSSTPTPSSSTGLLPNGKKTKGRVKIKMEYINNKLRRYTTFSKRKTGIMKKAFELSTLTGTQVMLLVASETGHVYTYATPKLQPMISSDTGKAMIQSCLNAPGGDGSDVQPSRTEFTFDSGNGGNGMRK

[3] = biological target: T3, T07C12.11 (T07C12.11) (Caenorhabditis elegans) (UniProt G5EGG9)
T3 sequence: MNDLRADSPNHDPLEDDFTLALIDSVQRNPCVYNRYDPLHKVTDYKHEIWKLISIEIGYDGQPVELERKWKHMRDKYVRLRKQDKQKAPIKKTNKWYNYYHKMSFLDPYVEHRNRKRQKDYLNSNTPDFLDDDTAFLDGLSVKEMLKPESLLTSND

[4] = biological target: T4, nhr-46 (C45E5.6) (Caenorhabditis elegans) (UniProt Q95QR2)
T4 sequence: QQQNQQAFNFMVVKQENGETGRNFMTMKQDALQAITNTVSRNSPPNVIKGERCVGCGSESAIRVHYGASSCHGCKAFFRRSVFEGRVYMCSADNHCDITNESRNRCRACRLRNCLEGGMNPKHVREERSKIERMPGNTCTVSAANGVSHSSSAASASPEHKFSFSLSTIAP

[5] = biological target: T5, ceh-18 (ZC64.3) (Caenorhabditis elegans) (UniProt P41934)
T5 sequence: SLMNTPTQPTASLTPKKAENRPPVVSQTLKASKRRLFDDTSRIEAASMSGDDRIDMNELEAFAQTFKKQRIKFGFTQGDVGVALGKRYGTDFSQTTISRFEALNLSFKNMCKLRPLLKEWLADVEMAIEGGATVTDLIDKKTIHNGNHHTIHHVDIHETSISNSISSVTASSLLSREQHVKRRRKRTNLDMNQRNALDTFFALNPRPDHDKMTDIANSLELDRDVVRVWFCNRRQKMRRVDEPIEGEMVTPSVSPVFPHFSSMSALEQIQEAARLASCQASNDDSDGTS

[6] = biological target: T6, nhr-42 (C33G8.6) (Caenorhabditis elegans) (UniProt O76828)
T6 sequence: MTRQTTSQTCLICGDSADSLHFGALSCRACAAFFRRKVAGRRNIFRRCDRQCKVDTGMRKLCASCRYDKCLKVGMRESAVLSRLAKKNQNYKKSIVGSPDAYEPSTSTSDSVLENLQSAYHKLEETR

[7] = biological target: T7, C07E3.6 (C07E3.6) (Caenorhabditis elegans) (UniProt Q17792)
T7 sequence: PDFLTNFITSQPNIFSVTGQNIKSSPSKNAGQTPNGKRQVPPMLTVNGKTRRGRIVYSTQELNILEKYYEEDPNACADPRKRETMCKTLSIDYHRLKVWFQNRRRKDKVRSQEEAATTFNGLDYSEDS

[8] = biological target: T8, ceh-23 (ZK652.5) (Caenorhabditis elegans) (UniProt P34663)
T8 sequence: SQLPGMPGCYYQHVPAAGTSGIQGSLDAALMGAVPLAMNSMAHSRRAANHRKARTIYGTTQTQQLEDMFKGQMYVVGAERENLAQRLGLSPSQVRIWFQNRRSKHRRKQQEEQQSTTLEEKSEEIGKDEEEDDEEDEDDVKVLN

[9] = biological target: T9, eyg-1 (Y53C12C.1) (Caenorhabditis elegans) (UniProt O01996)
T9 sequence: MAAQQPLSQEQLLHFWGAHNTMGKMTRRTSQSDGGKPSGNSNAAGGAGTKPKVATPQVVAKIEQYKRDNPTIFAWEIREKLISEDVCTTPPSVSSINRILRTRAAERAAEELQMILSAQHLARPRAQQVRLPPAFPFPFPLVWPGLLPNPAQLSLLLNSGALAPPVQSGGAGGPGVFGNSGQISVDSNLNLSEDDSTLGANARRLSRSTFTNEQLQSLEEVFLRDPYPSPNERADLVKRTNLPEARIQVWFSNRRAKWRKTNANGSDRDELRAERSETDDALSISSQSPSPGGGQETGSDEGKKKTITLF

[10] = biological target: T10, atf-6 (F45E6.2) (Caenorhabditis elegans) (UniProt Q20435)
T10 sequence: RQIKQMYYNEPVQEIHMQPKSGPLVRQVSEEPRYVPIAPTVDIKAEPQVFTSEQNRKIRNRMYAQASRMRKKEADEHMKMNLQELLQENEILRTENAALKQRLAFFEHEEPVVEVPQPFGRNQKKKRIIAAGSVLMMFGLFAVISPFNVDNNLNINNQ

AAAGTGCA (double strand) [8-mer AAAGTGCA]
binding signal (PBM E-score (-0.5 to 0.5)) [1]: 0.498

AAATAAGG (double strand) [8-mer AAATAAGG]
binding signal (PBM E-score (-0.5 to 0.5)) [2]: 0.464

AAATATGG (double strand) [8-mer AAATATGG]
binding signal (PBM E-score (-0.5 to 0.5)) [2]: 0.474

AACGTAAG (double strand) [8-mer AACGTAAG]
binding signal (PBM E-score (-0.5 to 0.5)) [3]: 0.486

AAGATCAT (double strand) [8-mer AAGATCAT]
binding signal (PBM E-score (-0.5 to 0.5)) [4]: 0.476

AAGTACAA (double strand) [8-mer AAGTACAA]
binding signal (PBM E-score (-0.5 to 0.5)) [1]: 0.493

AATATGCA (double strand) [8-mer AATATGCA]
binding signal (PBM E-score (-0.5 to 0.5)) [5]: 0.482

AATATTCA (double strand) [8-mer AATATTCA]
binding signal (PBM E-score (-0.5 to 0.5)) [5]: 0.477

AATTATGC (double strand) [8-mer AATTATGC]
binding signal (PBM E-score (-0.5 to 0.5)) [5]: 0.484

ACACTACG (double strand) [8-mer ACACTACG]
binding signal (PBM E-score (-0.5 to 0.5)) [6]: 0.493

ACCTTATA (double strand) [8-mer ACCTTATA]
binding signal (PBM E-score (-0.5 to 0.5)) [2]: 0.466

ACGTAAGA (double strand) [8-mer ACGTAAGA]
binding signal (PBM E-score (-0.5 to 0.5)) [3]: 0.486

ACGTAAGC (double strand) [8-mer ACGTAAGC]
binding signal (PBM E-score (-0.5 to 0.5)) [3]: 0.487

ACGTAAGG (double strand) [8-mer ACGTAAGG]
binding signal (PBM E-score (-0.5 to 0.5)) [3]: 0.488

ACTACGAA (double strand) [8-mer ACTACGAA]
binding signal (PBM E-score (-0.5 to 0.5)) [6]: 0.486

ACTACGAT (double strand) [8-mer ACTACGAT]
binding signal (PBM E-score (-0.5 to 0.5)) [6]: 0.482

AGACTACG (double strand) [8-mer AGACTACG]
binding signal (PBM E-score (-0.5 to 0.5)) [6]: 0.492

AGATCAAA (double strand) [8-mer AGATCAAA]
binding signal (PBM E-score (-0.5 to 0.5)) [4]: 0.473

AGATCAAG (double strand) [8-mer AGATCAAG]
binding signal (PBM E-score (-0.5 to 0.5)) [4]: 0.466

AGTCACAT (double strand) [8-mer AGTCACAT]
binding signal (PBM E-score (-0.5 to 0.5)) [6]: 0.481

ATACGTAA (double strand) [8-mer ATACGTAA]
binding signal (PBM E-score (-0.5 to 0.5)) [3]: 0.491

ATATAAGG (double strand) [8-mer ATATAAGG]
binding signal (PBM E-score (-0.5 to 0.5)) [2]: 0.478

ATATATGG (double strand) [8-mer ATATATGG]
binding signal (PBM E-score (-0.5 to 0.5)) [2]: 0.486

ATATGCAC (double strand) [8-mer ATATGCAC]
binding signal (PBM E-score (-0.5 to 0.5)) [5]: 0.477

ATATGCAT (double strand) [8-mer ATATGCAT]
binding signal (PBM E-score (-0.5 to 0.5)) [5]: 0.486

ATGAATAA (double strand) [8-mer ATGAATAA]
binding signal (PBM E-score (-0.5 to 0.5)) [5]: 0.477

ATGATCTC (double strand) [8-mer ATGATCTC]
binding signal (PBM E-score (-0.5 to 0.5)) [4]: 0.46

ATGCATAA (double strand) [8-mer ATGCATAA]
binding signal (PBM E-score (-0.5 to 0.5)) [5]: 0.495

ATTATGCA (double strand) [8-mer ATTATGCA]
binding signal (PBM E-score (-0.5 to 0.5)) [5]: 0.496

CACTACGA (double strand) [8-mer CACTACGA]
binding signal (PBM E-score (-0.5 to 0.5)) [6]: 0.485

CATAATTA (double strand) [8-mer CATAATTA]
binding signal (PBM E-score (-0.5 to 0.5)) [7]: 0.495 | binding signal (PBM E-score (-0.5 to 0.5)) [5]: 0.483 | binding signal (PBM E-score (-0.5 to 0.5)) [8]: 0.493

CATATAAG (double strand) [8-mer CATATAAG]
binding signal (PBM E-score (-0.5 to 0.5)) [2]: 0.466

CATATATG (double strand) [8-mer CATATATG]
binding signal (PBM E-score (-0.5 to 0.5)) [2]: 0.468

CATATGCA (double strand) [8-mer CATATGCA]
binding signal (PBM E-score (-0.5 to 0.5)) [5]: 0.478

CCATAAAA (double strand) [8-mer CCATAAAA]
binding signal (PBM E-score (-0.5 to 0.5)) [2]: 0.459

CCATATAA (double strand) [8-mer CCATATAA]
binding signal (PBM E-score (-0.5 to 0.5)) [2]: 0.465

CCTTATAA (double strand) [8-mer CCTTATAA]
binding signal (PBM E-score (-0.5 to 0.5)) [2]: 0.474

CGTAGTCA (double strand) [8-mer CGTAGTCA]
binding signal (PBM E-score (-0.5 to 0.5)) [6]: 0.48

CTAATTAA (double strand) [8-mer CTAATTAA]
binding signal (PBM E-score (-0.5 to 0.5)) [7]: 0.498 | binding signal (PBM E-score (-0.5 to 0.5)) [8]: 0.498 | binding signal (PBM E-score (-0.5 to 0.5)) [9]: 0.489

CTAATTAG (double strand) [8-mer CTAATTAG]
binding signal (PBM E-score (-0.5 to 0.5)) [7]: 0.497 | binding signal (PBM E-score (-0.5 to 0.5)) [8]: 0.495 | binding signal (PBM E-score (-0.5 to 0.5)) [9]: 0.473

CTTAATTA (double strand) [8-mer CTTAATTA]
binding signal (PBM E-score (-0.5 to 0.5)) [7]: 0.497 | binding signal (PBM E-score (-0.5 to 0.5)) [8]: 0.494 | binding signal (PBM E-score (-0.5 to 0.5)) [9]: 0.482

CTTACGCA (double strand) [8-mer CTTACGCA]
binding signal (PBM E-score (-0.5 to 0.5)) [3]: 0.487

CTTACGTA (double strand) [8-mer CTTACGTA]
binding signal (PBM E-score (-0.5 to 0.5)) [3]: 0.495 | binding signal (PBM E-score (-0.5 to 0.5)) [10]: 0.456

CTTGCGCA (double strand) [8-mer CTTGCGCA]
binding signal (PBM E-score (-0.5 to 0.5)) [3]: 0.489

CTTGCGTA (double strand) [8-mer CTTGCGTA]
binding signal (PBM E-score (-0.5 to 0.5)) [3]: 0.487

GAATATTC (double strand) [8-mer GAATATTC]
binding signal (PBM E-score (-0.5 to 0.5)) [5]: 0.494

GACTACGA (double strand) [8-mer GACTACGA]
binding signal (PBM E-score (-0.5 to 0.5)) [6]: 0.487

GACTACGC (double strand) [8-mer GACTACGC]
binding signal (PBM E-score (-0.5 to 0.5)) [6]: 0.484

GATAATTA (double strand) [8-mer GATAATTA]
binding signal (PBM E-score (-0.5 to 0.5)) [7]: 0.497 | binding signal (PBM E-score (-0.5 to 0.5)) [8]: 0.492 | binding signal (PBM E-score (-0.5 to 0.5)) [9]: 0.48

GCCTTATA (double strand) [8-mer GCCTTATA]
binding signal (PBM E-score (-0.5 to 0.5)) [2]: 0.47

GTTAATTA (double strand) [8-mer GTTAATTA]
binding signal (PBM E-score (-0.5 to 0.5)) [7]: 0.498 | binding signal (PBM E-score (-0.5 to 0.5)) [8]: 0.497 | binding signal (PBM E-score (-0.5 to 0.5)) [9]: 0.481

GTTACGTA (double strand) [8-mer GTTACGTA]
binding signal (PBM E-score (-0.5 to 0.5)) [3]: 0.49

TACCATAA (double strand) [8-mer TACCATAA]
binding signal (PBM E-score (-0.5 to 0.5)) [2]: 0.462

TACGTAAA (double strand) [8-mer TACGTAAA]
binding signal (PBM E-score (-0.5 to 0.5)) [3]: 0.488

TAGATCAA (double strand) [8-mer TAGATCAA]
binding signal (PBM E-score (-0.5 to 0.5)) [4]: 0.465

TATAAGGA (double strand) [8-mer TATAAGGA]
binding signal (PBM E-score (-0.5 to 0.5)) [2]: 0.472

TATATGGA (double strand) [8-mer TATATGGA]
binding signal (PBM E-score (-0.5 to 0.5)) [2]: 0.478

TATGCAAA (double strand) [8-mer TATGCAAA]
binding signal (PBM E-score (-0.5 to 0.5)) [5]: 0.486

TATGCATA (double strand) [8-mer TATGCATA]
binding signal (PBM E-score (-0.5 to 0.5)) [5]: 0.497

TGCATAAA (double strand) [8-mer TGCATAAA]
binding signal (PBM E-score (-0.5 to 0.5)) [5]: 0.476

TTAATTAA (double strand) [8-mer TTAATTAA]
binding signal (PBM E-score (-0.5 to 0.5)) [7]: 0.496 | binding signal (PBM E-score (-0.5 to 0.5)) [8]: 0.497 | binding signal (PBM E-score (-0.5 to 0.5)) [9]: 0.487

TTATGCAA (double strand) [8-mer TTATGCAA]
binding signal (PBM E-score (-0.5 to 0.5)) [5]: 0.476
